Laboratory results as given in patent US20200024322A1 (Eli Lilly, published 2020).
Numbering of substitutions follows the chain as printed. Numbered stars: 1 amine (or outer) side, 2 acyl side, 3 side chain; on linkers, the order of the positions; unused ones are H or OH. Square brackets hold non-standard residues; d marks the D form. Side chains are listed from the residue outwards. Ends that are not written are not given here. * marks the point of attachment. C20 diacid = O=C(O)CCCCCCCCCCCCCCCCCCC(=O)*; γGlu = O=C(O)[C@H](CCC(=O)[*:2])N[*:1]; AEEA = NCCOCCOCC(=O)O; Aib = CC(C)(N)C(=O)O

T1: human GIP receptor (human, UniProt P48546 22-466)
T1 construct: whole, on cells; Used as crude membranes of stably transfected CHO cells; also called hGIPR
T1 sequence (looked up): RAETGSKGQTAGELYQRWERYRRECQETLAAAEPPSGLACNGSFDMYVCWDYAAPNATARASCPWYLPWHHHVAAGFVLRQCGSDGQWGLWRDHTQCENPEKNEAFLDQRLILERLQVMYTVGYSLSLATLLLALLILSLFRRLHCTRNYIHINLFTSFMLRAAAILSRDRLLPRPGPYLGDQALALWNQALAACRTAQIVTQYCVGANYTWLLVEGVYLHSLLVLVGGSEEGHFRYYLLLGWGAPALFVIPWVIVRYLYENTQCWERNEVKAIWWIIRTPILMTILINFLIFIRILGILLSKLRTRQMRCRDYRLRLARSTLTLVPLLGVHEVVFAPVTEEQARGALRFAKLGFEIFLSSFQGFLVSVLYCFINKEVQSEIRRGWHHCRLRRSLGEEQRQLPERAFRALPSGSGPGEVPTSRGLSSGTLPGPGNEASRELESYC

B1: Example 10 (peptide)
peptide: Y[Aib]EGTFTSDYSILLDSIAQ[Aib]AFIK([AEEA-AEEA-γGlu-C20 diacid])YLLA[Aib]GPSSGAPPPS-NH2
modifications: N-terminus assumed
SMILES: CC[C@H](C)[C@H](NC(=O)[C@H](CO)NC(=O)[C@H](CC(=O)O)NC(=O)[C@H](CC(C)C)NC(=O)[C@H](CC(C)C)NC(=O)[C@@H](NC(=O)[C@H](CO)NC(=O)[C@H](Cc1ccc(O)cc1)NC(=O)[C@H](CC(=O)O)NC(=O)[C@H](CO)NC(=O)[C@@H](NC(=O)[C@H](Cc1ccccc1)NC(=O)[C@@H](NC(=O)CNC(=O)[C@H](CCC(=O)O)NC(=O)C(C)(C)NC(=O)[C@@H](N)Cc1ccc(O)cc1)[C@@H](C)O)[C@@H](C)O)[C@@H](C)CC)C(=O)N[C@@H](C)C(=O)N[C@@H](CCC(N)=O)C(=O)NC(C)(C)C(=O)N[C@@H](C)C(=O)N[C@@H](Cc1ccccc1)C(=O)N[C@H](C(=O)N[C@@H](CCCCNC(=O)COCCOCCNC(=O)COCCOCCNC(=O)CC[C@H](NC(=O)CCCCCCCCCCCCCCCCCCC(=O)O)C(=O)O)C(=O)N[C@@H](Cc1ccc(O)cc1)C(=O)N[C@@H](CC(C)C)C(=O)N[C@@H](CC(C)C)C(=O)N[C@@H](C)C(=O)NC(C)(C)C(=O)NCC(=O)N1CCC[C@H]1C(=O)N[C@@H](CO)C(=O)N[C@@H](CO)C(=O)NCC(=O)N[C@@H](C)C(=O)N1CCC[C@H]1C(=O)N1CCC[C@H]1C(=O)N1CCC[C@H]1C(=O)N[C@@H](CO)C(N)=O)[C@@H](C)CC
B2: Example 11 (peptide)
peptide: Y[Aib]EGTFTSDYSILLDSIAQ[Aib]AFIEYLLK([AEEA-AEEA-γGlu-C20 diacid])[Aib]GPSSGAPPPS-NH2
modifications: N-terminus assumed
SMILES: CC[C@H](C)[C@H](NC(=O)[C@H](CO)NC(=O)[C@H](CC(=O)O)NC(=O)[C@H](CC(C)C)NC(=O)[C@H](CC(C)C)NC(=O)[C@@H](NC(=O)[C@H](CO)NC(=O)[C@H](Cc1ccc(O)cc1)NC(=O)[C@H](CC(=O)O)NC(=O)[C@H](CO)NC(=O)[C@@H](NC(=O)[C@H](Cc1ccccc1)NC(=O)[C@@H](NC(=O)CNC(=O)[C@H](CCC(=O)O)NC(=O)C(C)(C)NC(=O)[C@@H](N)Cc1ccc(O)cc1)[C@@H](C)O)[C@@H](C)O)[C@@H](C)CC)C(=O)N[C@@H](C)C(=O)N[C@@H](CCC(N)=O)C(=O)NC(C)(C)C(=O)N[C@@H](C)C(=O)N[C@@H](Cc1ccccc1)C(=O)N[C@H](C(=O)N[C@@H](CCC(=O)O)C(=O)N[C@@H](Cc1ccc(O)cc1)C(=O)N[C@@H](CC(C)C)C(=O)N[C@@H](CC(C)C)C(=O)N[C@@H](CCCCNC(=O)COCCOCCNC(=O)COCCOCCNC(=O)CC[C@H](NC(=O)CCCCCCCCCCCCCCCCCCC(=O)O)C(=O)O)C(=O)NC(C)(C)C(=O)NCC(=O)N1CCC[C@H]1C(=O)N[C@@H](CO)C(=O)N[C@@H](CO)C(=O)NCC(=O)N[C@@H](C)C(=O)N1CCC[C@H]1C(=O)N1CCC[C@H]1C(=O)N1CCC[C@H]1C(=O)N[C@@H](CO)C(N)=O)[C@@H](C)CC
B3: Example 157 (peptide)
peptide: YXEGTXTSDXSIXLDEKAQXEFIEYLIEGGPSSGAPPPS
modifications: Aib2; αMeF(2F)6; 3Pal10; αMeL13; K17((2-[2-(2-Amino-ethoxy)-ethoxy]-acetyl)2-(γ-Glu)-CO-(CH2)18-CO2H); Aib20; C-terminal NH2
B4: Example 189 (peptide)
peptide: B3 peptide with E24X
modifications: Aib2; αMeF(2F)6; 4Pal10; αMeL13; K17((2-[2-(2-Amino-ethoxy)-ethoxy]-acetyl)2-(γ-Glu)-CO-(CH2)18-CO2H); Aib20; Aib24; C-terminal NH2
B5: Example 205 (peptide)
peptide: B3 peptide with E24X
modifications: Aib2; αMeF(2F)6; 4Pal10; αMeL13; K17((2-[2-(2-Amino-ethoxy)-ethoxy]-acetyl)2-CO-(CH2)16-CO2H); Aib20; D-Glu24; C-terminal NH2
B6: Example 182 (peptide)
peptide: B3 peptide with E24X
modifications: not printed (the compound name of this Example is missing from the table of Examples 6-287)
B7: Example 206 (peptide)
peptide: B3 peptide with E24X
modifications: Aib2; αMeF(2F)6; 4Pal10; αMeL13; K17((2-[2-(2-Amino-ethoxy)-ethoxy]-acetyl)2-CO-(CH2)18-CO2H); Aib20; D-Glu24; C-terminal NH2
B8: Example 181 (peptide)
peptide: B3 peptide with E24X
modifications: not printed (the compound name of this Example is missing from the table of Examples 6-287)
B9: Example 158 (peptide)
peptide: B3 peptide
modifications: Aib2; αMeF(2F)6; 4Pal10; αMeL13; K17((2-[2-(2-Amino-ethoxy)-ethoxy]-acetyl)2-(γ-Glu)-CO-(CH2)18-CO2H); Aib20; C-terminal NH2
B10: Example 207 (peptide)
peptide: B3 peptide with E24X
modifications: Aib2; αMeF(2F)6; 4Pal10; αMeL13; K17((2-[2-(2-Amino-ethoxy)-ethoxy]-acetyl)2-(εK)-CO-(CH2)18-CO2H); Aib20; D-Glu24; C-terminal NH2
B11: Example 202 (peptide)
peptide: B3 peptide with E16K, E24X
modifications: Aib2; αMeF(2F)6; 4Pal10; αMeL13; K17((2-[2-(2-Amino-ethoxy)-ethoxy]-acetyl)-(γ-Glu)-(2-[2-(2-Amino-ethoxy)-ethoxy]-acetyl)-CO-(CH2)18-CO2H); Aib20; D-Glu24; C-terminal NH2
B12: Example 203 (peptide)
peptide: B3 peptide with E16K, E24X
modifications: Aib2; αMeF(2F)6; 4Pal10; αMeL13; K17((2-[2-(2-Amino-ethoxy)-ethoxy]-acetyl)2-(γ-Glu)-CO-(CH2)18-CO2H); Aib20; D-Glu24; C-terminal NH2
B13: Example 12 (peptide)
peptide: Y[Aib]EGTFTSDYSILLDKIAQK([AEEA-AEEA-γGlu-C20 diacid])AFIEYLIEGGPSSGAPPPS-NH2
modifications: N-terminus assumed
SMILES: CC[C@H](C)[C@H](NC(=O)[C@H](CCCCN)NC(=O)[C@H](CC(=O)O)NC(=O)[C@H](CC(C)C)NC(=O)[C@H](CC(C)C)NC(=O)[C@@H](NC(=O)[C@H](CO)NC(=O)[C@H](Cc1ccc(O)cc1)NC(=O)[C@H](CC(=O)O)NC(=O)[C@H](CO)NC(=O)[C@@H](NC(=O)[C@H](Cc1ccccc1)NC(=O)[C@@H](NC(=O)CNC(=O)[C@H](CCC(=O)O)NC(=O)C(C)(C)NC(=O)[C@@H](N)Cc1ccc(O)cc1)[C@@H](C)O)[C@@H](C)O)[C@@H](C)CC)C(=O)N[C@@H](C)C(=O)N[C@@H](CCC(N)=O)C(=O)N[C@@H](CCCCNC(=O)COCCOCCNC(=O)COCCOCCNC(=O)CC[C@H](NC(=O)CCCCCCCCCCCCCCCCCCC(=O)O)C(=O)O)C(=O)N[C@@H](C)C(=O)N[C@@H](Cc1ccccc1)C(=O)N[C@H](C(=O)N[C@@H](CCC(=O)O)C(=O)N[C@@H](Cc1ccc(O)cc1)C(=O)N[C@@H](CC(C)C)C(=O)N[C@H](C(=O)N[C@@H](CCC(=O)O)C(=O)NCC(=O)NCC(=O)N1CCC[C@H]1C(=O)N[C@@H](CO)C(=O)N[C@@H](CO)C(=O)NCC(=O)N[C@@H](C)C(=O)N1CCC[C@H]1C(=O)N1CCC[C@H]1C(=O)N1CCC[C@H]1C(=O)N[C@@H](CO)C(N)=O)[C@@H](C)CC)[C@@H](C)CC
B14: Example 14 (peptide)
peptide: Y[Aib]EGTFTSDYSILLDKIAQK([AEEA-AEEA-γGlu-C20 diacid])EFIQYLLE[Aib]GPSSGAPPPS-NH2
modifications: N-terminus assumed
SMILES: CC[C@H](C)[C@H](NC(=O)[C@H](CCCCN)NC(=O)[C@H](CC(=O)O)NC(=O)[C@H](CC(C)C)NC(=O)[C@H](CC(C)C)NC(=O)[C@@H](NC(=O)[C@H](CO)NC(=O)[C@H](Cc1ccc(O)cc1)NC(=O)[C@H](CC(=O)O)NC(=O)[C@H](CO)NC(=O)[C@@H](NC(=O)[C@H](Cc1ccccc1)NC(=O)[C@@H](NC(=O)CNC(=O)[C@H](CCC(=O)O)NC(=O)C(C)(C)NC(=O)[C@@H](N)Cc1ccc(O)cc1)[C@@H](C)O)[C@@H](C)O)[C@@H](C)CC)C(=O)N[C@@H](C)C(=O)N[C@@H](CCC(N)=O)C(=O)N[C@@H](CCCCNC(=O)COCCOCCNC(=O)COCCOCCNC(=O)CC[C@H](NC(=O)CCCCCCCCCCCCCCCCCCC(=O)O)C(=O)O)C(=O)N[C@@H](CCC(=O)O)C(=O)N[C@@H](Cc1ccccc1)C(=O)N[C@H](C(=O)N[C@@H](CCC(N)=O)C(=O)N[C@@H](Cc1ccc(O)cc1)C(=O)N[C@@H](CC(C)C)C(=O)N[C@@H](CC(C)C)C(=O)N[C@@H](CCC(=O)O)C(=O)NC(C)(C)C(=O)NCC(=O)N1CCC[C@H]1C(=O)N[C@@H](CO)C(=O)N[C@@H](CO)C(=O)NCC(=O)N[C@@H](C)C(=O)N1CCC[C@H]1C(=O)N1CCC[C@H]1C(=O)N1CCC[C@H]1C(=O)N[C@@H](CO)C(N)=O)[C@@H](C)CC

What follows are binders tested against T2, human glucagon receptor (human, UniProt P47871 26-477) (assay: SPA, [125I]-Gcg displacement, hGcgR membranes).
T2 construct: whole, on cells; Used as crude membranes of stably transfected HEK293 cells; also called hGcgR; hGLcgR
T2 sequence (P47871 26-477): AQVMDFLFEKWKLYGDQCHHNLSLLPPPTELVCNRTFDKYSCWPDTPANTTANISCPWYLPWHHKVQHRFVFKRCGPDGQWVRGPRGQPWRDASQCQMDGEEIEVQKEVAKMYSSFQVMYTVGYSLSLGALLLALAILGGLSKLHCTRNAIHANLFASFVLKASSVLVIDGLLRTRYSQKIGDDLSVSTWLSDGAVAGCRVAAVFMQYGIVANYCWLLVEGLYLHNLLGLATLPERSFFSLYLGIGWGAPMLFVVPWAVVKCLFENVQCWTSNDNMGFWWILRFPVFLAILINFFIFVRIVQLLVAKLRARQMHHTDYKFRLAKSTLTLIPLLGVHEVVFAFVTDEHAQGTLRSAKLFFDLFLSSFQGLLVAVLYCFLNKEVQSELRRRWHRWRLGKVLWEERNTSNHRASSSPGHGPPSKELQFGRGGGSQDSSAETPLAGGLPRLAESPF
B1 was tested, and the Ki was 226 nM.
For B2, the Ki was 174 nM.
Binder B3 has a Ki of 179 nM.
B4 showed a Ki of 146 nM.
B5 was tested, and the Ki was 438 nM.
Work on B6 yielded a Ki of 565 nM.
For B7, the Ki was 176 nM.
With B8 the Ki was 413 nM.
B9 showed a Ki of 285 nM.
Work on B10 yielded a Ki of 74.2 nM.
Work on B11 yielded a Ki of 394 nM.
Binder B12 has a Ki of 845 nM.
For B13, the Ki was 684 nM.
B14 gave a Ki of 160 nM.

Each binder was assayed against T1, human GIP receptor (assay: SPA, [125I]-GIP displacement, hGIPR membranes).
B1 showed a Ki of 0.109 nM.
Binder B2 has a Ki of 0.226 nM.
B3 gave a Ki of 0.0937 nM.
With B4 the Ki was 0.128 nM.
Work on B5 yielded a Ki of 0.0367 nM.
With B6 the Ki was 0.0669 nM.
For B7, the Ki was 0.0814 nM.
B8 gave a Ki of 0.145 nM.
Work on B9 yielded a Ki of 0.114 nM.
With B10 the Ki was 0.0786 nM.
B11 showed a Ki of 0.0579 nM.
Binder B12 has a Ki of 0.0337 nM.
With B13 the Ki was 0.167 nM.
B14 was tested, and the Ki was 0.0494 nM.

What follows are binders tested against T3, human GLP-1 receptor (human, UniProt P43220 24-463) (assay: SPA, [125I]-GLP-1 displacement, hGLP-1R membranes).
T3 construct: whole, on cells; Used as crude membranes of stably transfected HEK293 cells; also called hGLP1R; hGLP-1R
Binder B1 has a Ki of 9.33 nM.
With B2 the Ki was 15.7 nM.
B3 was tested, and the Ki was 8.97 nM.
B4 showed a Ki of 8.81 nM.
B5 showed a Ki of 3.05 nM.
Work on B6 yielded a Ki of 4.64 nM.
With B7 the Ki was 5.27 nM.
B8 gave a Ki of 7.28 nM.
In the case of B9, the Ki is reported as 11.8 nM.
B10 showed a Ki of 1.37 nM.
For B11, the Ki was 5.38 nM.
For B12, the Ki was 3.9 nM.
Work on B13 yielded a Ki of 12.9 nM.
B14 gave a Ki of 29.6 nM.
